This note sets out measurements from PMC10218266, “Unveiling CD59-Antibody Interactions to Design Paratope-Mimicking Peptides for Complement Modulation” (International Journal of Molecular Sciences, 2023).

Experiment [1] has as its target T1, recombinant human CD59 (Homo sapiens, UniProt P13987).
T1 construct: purchased Abcam ab134887
T1 sequence (P13987 26-128): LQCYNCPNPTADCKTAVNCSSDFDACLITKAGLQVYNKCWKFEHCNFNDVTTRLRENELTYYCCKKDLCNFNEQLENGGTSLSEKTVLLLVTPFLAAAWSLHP
Briefly: Surface Plasmon Resonance (SPR) direct binding assay. The following applies: for kon: CD59 on CM5 chip, HBS-EP, 25 °C, 1:1 fit, average over tested peptide concentrations, read-out: ka. How it is done: (§1) The bicyclic peptides were tested for their ability to bind to recombinant human CD59. Direct binding assays were performed both using Surface Plasmon Resonance (SPR) and Biolayer Interferometry (BLI) label-free techniques (Figure 5). In both cases, after immobilisation of the protein on the sensor chips, the peptides were tested at increasing concentrations between 2.5 µM and 50 µM. […] Binding experiments were next repeated using BLI to confirm the recognition.
Assessment of binding kinetics and affinity between pm59 peptides and CD59 was performed at 25 °C using standard protocols on a BIACORE 3000 system (GE Healthcare, Little Chalfont, UK) with a research-grade CM5 (Carboxymethyl dextran) sensor chip and using commercial CD59 (ab134887) obtained from Abcam (Cambridge, UK). After chip preparation according to the manufacturer’s guidelines and surface activation, CD59 was immobilised onto the chip at a density of 4000 RU (0.5 mg/mL in 10 μL/min) on a NaAc buffer at pH 4.5. Bovine serum albumin (BSA) was immobilised on flow cell 2 to serve as reference. All surfaces were blocked with a 7′ injection of 1 M ethanolamine at pH 8.5.
The bicyclic acetylated CD59-targeting peptides were diluted in HBS-EP buffer (GE Healthcare, Little Chalfont, UK) and injected over the flow cells at a flow rate of 30 μL/min and concentrations ranging from 1 μM to 30 μM. Association of the complexes was allowed for 120 s and dissociation for 240 s. Regeneration of the surfaces was obtained by the sequential injection of 5 mM NaOH pulses (10 μL/min) until the established baseline was reached. Kinetics and binding data were fitted to a 1:1 stoichiometric interaction model using the global data analysis of the BIAevaluation software (GE Healthcare, Little Chalfont, UK) and Graphpad (Graphpad software, San Diego, CA, USA).

The target of experiment [2] is T1, recombinant human CD59. Briefly: Biolayer Interferometry (BLI) direct binding assay. The following applies: for kon / koff: CD59 on AR2G sensor, Kinetic Buffer, 1:1 fit; for kon: read-out: ka; for koff: read-out: kdis. Here is the method: as §1
The BLI technique was used to assess the binding of the peptides towards the human recombinant CD59 protein (Abcam code ab134887). The protein was efficiently immobilized at 15 μg/mL in 10 mM NaAc at pH 4.5 on a AR2G sensor chip (Sartorius) according to the manufacturer’s instructions. An unmodified sensor chip was used as blank. The peptides were tested at increasing concentrations from 5 µM to 50 µM dissolved in Kinetic Buffer (PBS containing 0.02% Tween20, 0.1% BSA, 0.05% sodium azide) and using the same running buffer. All analyses were carried out at 25 °C; 10 mM NaOH was used to regenerate the chip surface. All mathematical manipulations were performed using the Octet Analysis Studio 12.2 software from Sartorius. Data were fitted assuming a 1:1 Langmuir binding model determining the KDs by the global analysis mode. Binding curves were exported and charted using GraphPad software, vers. 5.
Background: In BLI a coated tip is dipped into the sample, and binding shifts an interference pattern.

Experiment [3] addresses T2, human recombinant CD59 protein (human, UniProt P13987 26-99).
T2 construct: CD59, human, recombinant commercial product (Abcam ab134887); also called commercial CD59 (ab134887); source: bought: Abcam (ab134887), recombinant
T2 sequence: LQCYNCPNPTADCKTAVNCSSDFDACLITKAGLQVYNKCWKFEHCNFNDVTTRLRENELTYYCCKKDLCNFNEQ
Briefly: BLI; CD59 immobilised at 15 μg/mL in 10 mM NaAc pH 4.5 on an AR2G sensor; peptides 5 µM to 50 µM in Kinetic Buffer (PBS, 0.02% Tween20, 0.1% BSA, 0.05% sodium azide), 25 °C; 1:1 Langmuir model. The following applies: both partners purified.

Experiment [4] concerns the target T2, human recombinant CD59 protein. Briefly: SPR; CD59 immobilised on a CM5 chip (4000 RU, NaAc buffer pH 4.5), BSA on the reference flow cell; peptides in HBS-EP injected at 30 μL/min, 25 °C, BIACORE 3000; 1:1 Langmuir model. The following applies: both partners purified. A general note: In SPR one partner is held on a chip, and binding of the other changes the refractive index at the surface.

The mark [5] stands for this setting: 25 °C, average over tested peptide concentrations.

Starred links: 1 amine or outer side, 2 acyl side, 3 side chain; linkers in the order of their positions; H or OH if unused. Positions of bridges follow the written chain, without caps; N, C: chain ends. Residues, ends and D or L forms follow the SMILES beside them. TBMB = c1c(C[*:1])cc(C[*:3])cc1C[*:2]

For `CC(=O)N[C@H]1CSCc2cc3cc(c2)CSC[C@H](NC(=O)[C@H](CC(C)C)NC(=O)[C@H](Cc2ccc(O)cc2)NC(=O)[C@H](CCCCN)NC(=O)[C@H](CC(N)=O)NC1=O)C(=O)N[C@@H](CCC(N)=O)C(=O)N[C@@H](Cc1ccc(O)cc1)C(=O)N[C@@H](Cc1ccc(O)cc1)C(=O)N[C@@H](CO)C(=O)N[C@@H]([C@@H](C)O)C(=O)N[C@H](C(N)=O)CSC3` [pm59sh] (Ac-CNKYLCQYYSTC-NH2; linker 1-6-12 via TBMB), the kon in experiment [1] was found to be 2930 M⁻¹ s⁻¹. In experiment [2] (setting [5]), the kon came out at 463 M⁻¹ s⁻¹ and the koff was determined as 0.00268 s⁻¹.

Take `CC(=O)N[C@H]1CSCc2cc3cc(c2)CSC[C@H](NC(=O)[C@H](CC(C)C)NC(=O)[C@H](Cc2ccc(O)cc2)NC(=O)[C@H](CCCCN)NC(=O)[C@H](CC(N)=O)NC(=O)[C@H](CC(N)=O)NC1=O)C(=O)N[C@@H](CCC(N)=O)C(=O)N[C@@H](Cc1ccc(O)cc1)C(=O)N[C@@H](Cc1ccc(O)cc1)C(=O)N[C@@H](CO)C(=O)N[C@@H]([C@@H](C)O)C(=O)N1CCC[C@H]1C(=O)N[C@H](C(N)=O)CSC3` [pm59md] (Ac-CNNKYLCQYYSTPC-NH2; linker 1-7-14 via TBMB): the values for the kon in experiment [1] and in experiment [2] (setting [5]) were 2930 M⁻¹ s⁻¹ and 919 M⁻¹ s⁻¹, respectively. Besides, the koff in experiment [2] (setting [5]) was found to be 0.00333 s⁻¹. In addition, the Kd in experiment [2] (OCTET R8, CD59 immobilised on AR2G sensor, Kinetic Buffer (PBS, 0.02% Tween20, 0.1% BSA, 0.05% sodium azide), 25 °C, 1:1 Langmuir fit, average over tested peptide concentrations) was found to be 4.39 µM.

For “Ac-CNNKYLACQQYYSTPC-NH2 (also: bicyclic or more (positions not given here)) [pm59ln, long bicyclic paratope-mimicking peptide of MB59 VL CDR1/CDR3, three cysteines linked by TBMB, N-acetylated, C-amidated]”, the “binding to CD59 (in words)” value is reported as “No significant binding” in experiment [1] (immobilised CD59, peptide at increasing concentrations between 2.5 µM and 50 µM (Figure 5E)); “No significant binding” in experiment [2] (immobilised CD59, peptide at increasing concentrations between 2.5 µM and 50 µM (Figure 5F)).

B1: pm59md, bicyclic paratope-mimicking peptide (medium version) (peptide)
peptide: Ac-CNNKYLCQYYSTPC-NH2
modifications: linker 1-7-14 via TBMB
SMILES: CC(=O)N[C@H]1CSCc2cc3cc(c2)CSC[C@H](NC(=O)[C@H](CC(C)C)NC(=O)[C@H](Cc2ccc(O)cc2)NC(=O)[C@H](CCCCN)NC(=O)[C@H](CC(N)=O)NC(=O)[C@H](CC(N)=O)NC1=O)C(=O)N[C@@H](CCC(N)=O)C(=O)N[C@@H](Cc1ccc(O)cc1)C(=O)N[C@@H](Cc1ccc(O)cc1)C(=O)N[C@@H](CO)C(=O)N[C@@H]([C@@H](C)O)C(=O)N1CCC[C@H]1C(=O)N[C@H](C(N)=O)CSC3
notes: designed from key residues of the CDR1 and CDR3 loops of the VL chain of the scFv MB59, flanking residues changed to cysteines; also called medium version of pm59; source: synthetic peptide (Fmoc solid phase, bi-cyclised with TBMB, RP-HPLC purified)
For the molecule B1, in experiment [3], the “KD at 10 μM” value was found to be 1.23 µM, the “KD at 20 μM” value worked out at 4.12 µM, the “KD at 25 μM” value is 6.52 µM and the “KD at 30 μM” value was 6.09 µM. Further, in experiment [3], the “KD at 40 μM” value was determined as 8.38 µM, the “ka at 5 μM” value came out at 963 M⁻¹ s⁻¹, the “ka at 10 μM” value stood at 1560 M⁻¹ s⁻¹ and the “ka at 20 μM” value worked out at 889 M⁻¹ s⁻¹. Also, in experiment [3], the “ka at 25 μM” value was found to be 783 M⁻¹ s⁻¹, the “ka at 30 μM” value is 750 M⁻¹ s⁻¹ and the “ka at 40 μM” value was 564 M⁻¹ s⁻¹. For the same molecule, in experiment [4], the “KD at 2.5 μM” value came out at 1.38 µM, the “KD at 5 μM” value was found to be 0.902 µM, the “KD at 10 μM” value worked out at 1.09 µM and the “KD at 20 μM” value was determined as 3.1 µM. Moreover, in experiment [4], the “KD at 30 μM” value was 4.39 µM, the “KD at 40 μM” value came to 3.88 µM, the “KD at 50 μM” value is 4.9 µM and the Kd was 3.13 µM. Also, in experiment [4], the “ka at 2.5 μM” value came to 5960 M⁻¹ s⁻¹, the “ka at 5 μM” value was 7080 M⁻¹ s⁻¹, the “ka at 10 μM” value came to 4830 M⁻¹ s⁻¹ and the “ka at 20 μM” value was determined as 2290 M⁻¹ s⁻¹. Besides, in experiment [4], the “ka at 30 μM” value was 1270 M⁻¹ s⁻¹, the “ka at 40 μM” value was 1320 M⁻¹ s⁻¹, the “ka at 50 μM” value is 980 M⁻¹ s⁻¹ and the “kd at 2.5 μM” value turned out to be 0.00814 s⁻¹. In experiment [4], the “kd at 5 μM” value amounted to 0.00638 s⁻¹, the “kd at 10 μM” value stood at 0.00526 s⁻¹, the “kd at 20 μM” value was determined as 0.0071 s⁻¹ and the “kd at 30 μM” value worked out at 0.00627 s⁻¹. In addition, in experiment [4], the “kd at 40 μM” value is 0.00511 s⁻¹, the “kd at 50 μM” value was found to be 0.0048 s⁻¹ and the koff was 0.00582 s⁻¹.

B2: pm59sh, bicyclic paratope-mimicking peptide (short version) (peptide)
peptide: Ac-CNKYLCQYYSTC-NH2
modifications: linker 1-6-12 via TBMB
SMILES: CC(=O)N[C@H]1CSCc2cc3cc(c2)CSC[C@H](NC(=O)[C@H](CC(C)C)NC(=O)[C@H](Cc2ccc(O)cc2)NC(=O)[C@H](CCCCN)NC(=O)[C@H](CC(N)=O)NC1=O)C(=O)N[C@@H](CCC(N)=O)C(=O)N[C@@H](Cc1ccc(O)cc1)C(=O)N[C@@H](Cc1ccc(O)cc1)C(=O)N[C@@H](CO)C(=O)N[C@@H]([C@@H](C)O)C(=O)N[C@H](C(N)=O)CSC3
notes: designed from key residues of the CDR1 and CDR3 loops of the VL chain of the scFv MB59, flanking residues changed to cysteines; also called short version of pm59; source: synthetic peptide (Fmoc solid phase, bi-cyclised with TBMB, RP-HPLC purified)
With B2, in experiment [3], the “KD at 5 μM” value was 0.865 µM, the “KD at 10 μM” value is 4.98 µM, the “KD at 20 μM” value amounted to 9.92 µM and the “KD at 30 μM” value amounted to 8.45 µM. In experiment [3], the “KD at 40 μM” value came to 15 µM, the “KD at 50 μM” value came to 15.9 µM, the Kd was determined as 9.18 µM and the “ka at 5 μM” value is 1130 M⁻¹ s⁻¹. Also, in experiment [3], the “ka at 10 μM” value stood at 524 M⁻¹ s⁻¹, the “ka at 20 μM” value stood at 294 M⁻¹ s⁻¹, the “ka at 30 μM” value amounted to 451 M⁻¹ s⁻¹ and the “ka at 40 μM” value was 197 M⁻¹ s⁻¹. In addition, the “ka at 50 μM” value in experiment [3] worked out at 178 M⁻¹ s⁻¹. For the same molecule, in experiment [4], the equilibrium dissociation constant (KD) at 5 μM turned out to be 0.469 µM, the “KD at 7.5 μM” value is 1.24 µM, the “KD at 10 μM” value is 1.64 µM and the “KD at 15 μM” value amounted to 2.39 µM. For the same molecule, in experiment [4], the “KD at 20 μM” value stood at 2.61 µM, the “KD at 25 μM” value was 4.13 µM, the “KD at 30 μM” value was 4.46 µM and the Kd worked out at 2.42 µM. Moreover, in experiment [4], the “ka at 5 μM” value is 7260 M⁻¹ s⁻¹, the “ka at 7.5 μM” value was 4210 M⁻¹ s⁻¹, the “ka at 10 μM” value turned out to be 3010 M⁻¹ s⁻¹ and the “ka at 15 μM” value was found to be 2050 M⁻¹ s⁻¹. Moreover, in experiment [4], the “ka at 20 μM” value came out at 1560 M⁻¹ s⁻¹, the “ka at 25 μM” value came to 1160 M⁻¹ s⁻¹, the “ka at 30 μM” value worked out at 1230 M⁻¹ s⁻¹ and the “kd at 5 μM” value was 0.0034 s⁻¹. Moreover, in experiment [4], the “kd at 7.5 μM” value is 0.00523 s⁻¹, the “kd at 10 μM” value is 0.00493 s⁻¹, the “kd at 15 μM” value worked out at 0.0049 s⁻¹ and the “kd at 20 μM” value came out at 0.00408 s⁻¹. Further, in experiment [4], the “kd at 25 μM” value is 0.00481 s⁻¹, the “kd at 30 μM” value was determined as 0.00548 s⁻¹ and the koff is 0.00469 s⁻¹.

In general, Kd refers to the free concentration of one partner at which half of the binding sites on the other are occupied at equilibrium, for simple one-to-one binding. The KD is the concentration at which binding is half-saturated.
